From publication PMC9765406

Legend:
[1] = target: BfpD, type IV pilus (bundle-forming pilus) extension ATPase from enteropathogenic Escherichia coli (enteropathogenic Escherichia coli (EPEC)); experiment: negative-stain electron microscopy with reference-free 2D averaging
[2] = target: BfpD, type IV pilus (bundle-forming pilus) extension ATPase from enteropathogenic Escherichia coli (enteropathogenic Escherichia coli (EPEC)); experiment: cryo-EM structure

Substance: BfpD, type IV pilus (bundle-forming pilus) extension ATPase from enteropathogenic Escherichia coli (enzyme)
- stoichiometry N [1]: 6
- stoichiometry N [2]: 6
